target: Hck (UniProt P08631); assay: phosphorylation enrichment, bacterial display (enrichment ratio); higher = better substrate or ligand; peptides without Tyr show the background
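Further: 11-residue human phosphosite peptides and single-mutation variants displayed on the E. coli surface, counted by deep sequencing, each peptide's frequency after selection divided by its frequency in the unselected input library; frequency after pTyr selection over input frequency; kinase dosed for 20-30% of maximal phosphorylation in three min.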

Sequence of Hck (P08631 whole entry, looked up): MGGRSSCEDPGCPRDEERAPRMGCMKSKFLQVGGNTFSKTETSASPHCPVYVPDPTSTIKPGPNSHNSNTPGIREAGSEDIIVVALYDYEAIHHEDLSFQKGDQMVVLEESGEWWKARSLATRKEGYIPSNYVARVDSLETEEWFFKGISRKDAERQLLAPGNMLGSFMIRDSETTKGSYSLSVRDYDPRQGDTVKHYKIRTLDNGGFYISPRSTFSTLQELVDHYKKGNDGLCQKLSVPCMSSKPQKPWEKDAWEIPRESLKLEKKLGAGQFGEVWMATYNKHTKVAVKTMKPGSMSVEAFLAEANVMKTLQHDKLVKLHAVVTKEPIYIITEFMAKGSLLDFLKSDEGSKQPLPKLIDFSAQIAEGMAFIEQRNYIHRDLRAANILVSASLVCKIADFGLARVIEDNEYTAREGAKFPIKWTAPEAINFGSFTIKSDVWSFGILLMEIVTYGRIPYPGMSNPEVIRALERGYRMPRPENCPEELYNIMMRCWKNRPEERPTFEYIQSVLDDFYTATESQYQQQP

| Sequence | phosphorylation enrichment |
| --- | --- |
| AYGGGYGGVLT [KRT19_Y65] | 0.605 |
| RPAFTYATLIR [FOXP3_Y342_P339A] | 3.08 |
| KTAFSYTSSST [SIM1_Y356_P352T] | 0.353 |
| HFPFQYHRQLY [F12_Y53] | 0.656 |
| EIEFLYNENMV [IARS1_Y680_T684M] | 0.526 |
| VVTGLYEKPSL [KIR3DS1_Y221] | 6.03 |
| CFCSWYRGWAP [TIMP3_Y195_G190C_YF] | 0.887 |
| VMSGPYNLKAL [IL1B_Y140_E141N] | 0.473 |
| PLLEFYRDIFT [CDAN1_Y713_YF] | 0.626 |
| KFANSYIMEPL [TCTE3_Y87_R88I] | 0.432 |
| PADRAYSWYQH [NDST1_Y711] | 0.888 |
| RELGKYGLQAF [ALDH2_Y497_E496K_YF] | 0.584 |
| SLGKGYFDGGC [MC4R_Y35_S36Y_YF] | 0.429 |
| RLLVVYPGTQR [HBB_Y36_W38G] | 0.526 |
| GPIFRYDLGGA [CYP11B1_Y81] | 0.357 |
| TCFDKYTGNTY [FN1_Y101] | 0.516 |
| KFDLMYAKRAF [TUBA1A_Y399] | 0.463 |

| Sequence | phosphorylation enrichment |
| --- | --- |
| IMITGYLLLFR [INSR_Y87_D86G] | 0.57 |
| SVVVPYEPPVV [TP53_Y220_E224V] | 0.437 |
| GVTLLYYGRYN [ADGRD1_Y85] | 2.13 |
| EEVGIYRVSGV [BCR_Y1089] | 3.09 |
| PVQAAYQKLVA [HBB_Y131_V134L] | 0.558 |
| VKGGAYYPVTV [MCCC2_Y145] | 0.607 |
| ANQDDHISFRH [IMP4_Y226_Y226H] | 0.501 |
| GDNSIYVTKII [DLG1_Y349] | 0.863 |
| GFPVHYTGVSN [DNMT3B_Y815_D817G] | 0.438 |
| IFLENYNAGTY [CFI_Y421_H418L] | 0.543 |
| GAPATYKGDAR [CACNA1A_Y1013_E1014K] | 0.384 |
| GYSRHYEDGYP [CTNND1_Y217] | 0.383 |
| YPLAEYTEVKT [ALDH1A3_Y497_A493P] | 0.538 |
| TTHRGYDSDNP [MMUT_Y146_A141T] | 0.665 |
| PLQKTYNFNVL [SLC4A1_Y553_YF] | 0.477 |
| VQSASYLNACL [MCM3AP_Y864] | 0.384 |

target: Jak2 (UniProt O60674); assay: as above
Sequence (O60674 whole entry, looked up): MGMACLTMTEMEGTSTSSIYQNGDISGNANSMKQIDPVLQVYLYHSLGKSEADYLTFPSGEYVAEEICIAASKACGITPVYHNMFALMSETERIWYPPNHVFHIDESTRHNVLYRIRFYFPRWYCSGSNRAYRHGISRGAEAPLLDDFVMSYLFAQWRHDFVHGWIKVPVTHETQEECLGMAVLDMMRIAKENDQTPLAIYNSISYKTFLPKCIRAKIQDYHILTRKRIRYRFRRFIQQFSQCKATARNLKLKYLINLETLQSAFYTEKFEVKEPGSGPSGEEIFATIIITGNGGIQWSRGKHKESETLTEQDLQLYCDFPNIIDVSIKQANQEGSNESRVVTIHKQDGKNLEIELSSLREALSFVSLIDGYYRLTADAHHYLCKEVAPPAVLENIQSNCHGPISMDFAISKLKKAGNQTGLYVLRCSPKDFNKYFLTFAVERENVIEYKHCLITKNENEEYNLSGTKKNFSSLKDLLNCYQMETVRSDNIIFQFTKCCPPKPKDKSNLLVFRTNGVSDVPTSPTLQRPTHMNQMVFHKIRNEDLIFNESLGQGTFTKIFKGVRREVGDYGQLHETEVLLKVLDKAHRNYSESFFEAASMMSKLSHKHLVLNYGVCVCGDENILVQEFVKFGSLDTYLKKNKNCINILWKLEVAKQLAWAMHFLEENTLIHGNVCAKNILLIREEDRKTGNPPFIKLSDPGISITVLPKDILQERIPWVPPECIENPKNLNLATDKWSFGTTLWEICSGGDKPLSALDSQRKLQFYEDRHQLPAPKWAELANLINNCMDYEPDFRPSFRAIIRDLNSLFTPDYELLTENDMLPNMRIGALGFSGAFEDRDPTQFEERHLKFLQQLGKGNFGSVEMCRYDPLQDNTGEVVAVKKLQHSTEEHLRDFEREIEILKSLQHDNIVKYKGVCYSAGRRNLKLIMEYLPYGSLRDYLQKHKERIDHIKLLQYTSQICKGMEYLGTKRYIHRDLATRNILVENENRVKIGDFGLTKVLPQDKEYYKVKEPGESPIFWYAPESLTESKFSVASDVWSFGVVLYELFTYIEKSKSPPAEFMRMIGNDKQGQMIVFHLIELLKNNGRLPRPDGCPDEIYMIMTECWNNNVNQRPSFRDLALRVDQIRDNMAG

| Sequence | phosphorylation enrichment |
| --- | --- |
| AYGGGYGGVLT [KRT19_Y65] | 0.485 |
| RPAFTYATLIR [FOXP3_Y342_P339A] | 1.55 |
| KTAFSYTSSST [SIM1_Y356_P352T] | 0.497 |
| HFPFQYHRQLY [F12_Y53] | 0.723 |
| EIEFLYNENMV [IARS1_Y680_T684M] | 1.07 |
| VVTGLYEKPSL [KIR3DS1_Y221] | 0.623 |
| CFCSWYRGWAP [TIMP3_Y195_G190C_YF] | 1.25 |
| VMSGPYNLKAL [IL1B_Y140_E141N] | 0.959 |
| PLLEFYRDIFT [CDAN1_Y713_YF] | 2 |
| KFANSYIMEPL [TCTE3_Y87_R88I] | 0.476 |
| PADRAYSWYQH [NDST1_Y711] | 1.68 |
| RELGKYGLQAF [ALDH2_Y497_E496K_YF] | 0.774 |
| SLGKGYFDGGC [MC4R_Y35_S36Y_YF] | 0.889 |
| RLLVVYPGTQR [HBB_Y36_W38G] | 0.836 |
| GPIFRYDLGGA [CYP11B1_Y81] | 0.568 |
| TCFDKYTGNTY [FN1_Y101] | 1.01 |
| KFDLMYAKRAF [TUBA1A_Y399] | 0.667 |

| Sequence | phosphorylation enrichment |
| --- | --- |
| IMITGYLLLFR [INSR_Y87_D86G] | 1.02 |
| SVVVPYEPPVV [TP53_Y220_E224V] | 0.731 |
| GVTLLYYGRYN [ADGRD1_Y85] | 1.85 |
| EEVGIYRVSGV [BCR_Y1089] | 0.794 |
| PVQAAYQKLVA [HBB_Y131_V134L] | 1.55 |
| VKGGAYYPVTV [MCCC2_Y145] | 2.65 |
| ANQDDHISFRH [IMP4_Y226_Y226H] | 0.833 |
| GDNSIYVTKII [DLG1_Y349] | 0.689 |
| GFPVHYTGVSN [DNMT3B_Y815_D817G] | 0.424 |
| IFLENYNAGTY [CFI_Y421_H418L] | 0.786 |
| GAPATYKGDAR [CACNA1A_Y1013_E1014K] | 0.489 |
| GYSRHYEDGYP [CTNND1_Y217] | 0.623 |
| YPLAEYTEVKT [ALDH1A3_Y497_A493P] | 0.721 |
| TTHRGYDSDNP [MMUT_Y146_A141T] | 0.699 |
| PLQKTYNFNVL [SLC4A1_Y553_YF] | 1.05 |
| VQSASYLNACL [MCM3AP_Y864] | 0.674 |

target: MERTK (UniProt Q12866); assay: as above
Sequence (Q12866 whole entry, looked up): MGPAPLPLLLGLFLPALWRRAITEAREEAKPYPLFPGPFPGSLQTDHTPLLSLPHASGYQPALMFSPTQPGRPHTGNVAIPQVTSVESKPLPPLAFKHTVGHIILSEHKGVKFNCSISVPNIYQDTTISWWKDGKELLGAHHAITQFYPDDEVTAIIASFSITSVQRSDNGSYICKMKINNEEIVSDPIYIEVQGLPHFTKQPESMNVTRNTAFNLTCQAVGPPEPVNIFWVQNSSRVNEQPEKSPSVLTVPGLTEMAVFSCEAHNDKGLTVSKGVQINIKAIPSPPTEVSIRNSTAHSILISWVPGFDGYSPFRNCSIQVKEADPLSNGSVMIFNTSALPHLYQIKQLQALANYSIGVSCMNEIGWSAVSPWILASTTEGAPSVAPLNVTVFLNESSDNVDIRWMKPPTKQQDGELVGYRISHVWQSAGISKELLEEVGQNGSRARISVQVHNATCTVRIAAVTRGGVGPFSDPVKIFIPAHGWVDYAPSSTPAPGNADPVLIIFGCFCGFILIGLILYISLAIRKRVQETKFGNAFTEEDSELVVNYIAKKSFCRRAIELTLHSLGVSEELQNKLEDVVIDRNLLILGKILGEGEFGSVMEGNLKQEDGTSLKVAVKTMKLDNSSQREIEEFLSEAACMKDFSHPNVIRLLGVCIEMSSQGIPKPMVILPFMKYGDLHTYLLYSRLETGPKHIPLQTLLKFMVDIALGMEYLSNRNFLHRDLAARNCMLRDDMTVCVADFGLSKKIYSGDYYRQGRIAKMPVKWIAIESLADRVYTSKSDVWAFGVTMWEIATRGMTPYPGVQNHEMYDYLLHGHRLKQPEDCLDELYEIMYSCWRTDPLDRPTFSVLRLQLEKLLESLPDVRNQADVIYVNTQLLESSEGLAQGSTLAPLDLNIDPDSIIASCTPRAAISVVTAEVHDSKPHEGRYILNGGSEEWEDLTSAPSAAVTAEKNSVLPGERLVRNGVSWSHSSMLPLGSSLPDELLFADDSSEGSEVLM

| Sequence | phosphorylation enrichment |
| --- | --- |
| AYGGGYGGVLT [KRT19_Y65] | 0.372 |
| RPAFTYATLIR [FOXP3_Y342_P339A] | 1.64 |
| KTAFSYTSSST [SIM1_Y356_P352T] | 0.44 |
| HFPFQYHRQLY [F12_Y53] | 0.566 |
| EIEFLYNENMV [IARS1_Y680_T684M] | 0.411 |
| VVTGLYEKPSL [KIR3DS1_Y221] | 9.59 |
| CFCSWYRGWAP [TIMP3_Y195_G190C_YF] | 0.556 |
| VMSGPYNLKAL [IL1B_Y140_E141N] | 0.507 |
| PLLEFYRDIFT [CDAN1_Y713_YF] | 0.81 |
| KFANSYIMEPL [TCTE3_Y87_R88I] | 0.37 |
| PADRAYSWYQH [NDST1_Y711] | 2.86 |
| RELGKYGLQAF [ALDH2_Y497_E496K_YF] | 0.612 |
| SLGKGYFDGGC [MC4R_Y35_S36Y_YF] | 0.389 |
| RLLVVYPGTQR [HBB_Y36_W38G] | 0.512 |
| GPIFRYDLGGA [CYP11B1_Y81] | 0.345 |
| TCFDKYTGNTY [FN1_Y101] | 0.345 |
| KFDLMYAKRAF [TUBA1A_Y399] | 0.414 |

| Sequence | phosphorylation enrichment |
| --- | --- |
| IMITGYLLLFR [INSR_Y87_D86G] | 0.668 |
| SVVVPYEPPVV [TP53_Y220_E224V] | 0.397 |
| GVTLLYYGRYN [ADGRD1_Y85] | 0.728 |
| EEVGIYRVSGV [BCR_Y1089] | 0.575 |
| PVQAAYQKLVA [HBB_Y131_V134L] | 0.577 |
| VKGGAYYPVTV [MCCC2_Y145] | 4.41 |
| ANQDDHISFRH [IMP4_Y226_Y226H] | 0.453 |
| GDNSIYVTKII [DLG1_Y349] | 0.524 |
| GFPVHYTGVSN [DNMT3B_Y815_D817G] | 0.361 |
| IFLENYNAGTY [CFI_Y421_H418L] | 0.403 |
| GAPATYKGDAR [CACNA1A_Y1013_E1014K] | 0.384 |
| GYSRHYEDGYP [CTNND1_Y217] | 0.524 |
| YPLAEYTEVKT [ALDH1A3_Y497_A493P] | 0.326 |
| TTHRGYDSDNP [MMUT_Y146_A141T] | 0.53 |
| PLQKTYNFNVL [SLC4A1_Y553_YF] | 0.426 |
| VQSASYLNACL [MCM3AP_Y864] | 0.46 |

test system: c-Abl (mouse); assay: as above

| Sequence | phosphorylation enrichment |
| --- | --- |
| AYGGGYGGVLT [KRT19_Y65] | 0.485 |
| RPAFTYATLIR [FOXP3_Y342_P339A] | 1.4 |
| KTAFSYTSSST [SIM1_Y356_P352T] | 0.456 |
| HFPFQYHRQLY [F12_Y53] | 0.508 |
| EIEFLYNENMV [IARS1_Y680_T684M] | 0.62 |
| VVTGLYEKPSL [KIR3DS1_Y221] | 17.3 |
| CFCSWYRGWAP [TIMP3_Y195_G190C_YF] | 0.933 |
| VMSGPYNLKAL [IL1B_Y140_E141N] | 0.643 |
| PLLEFYRDIFT [CDAN1_Y713_YF] | 1.18 |
| KFANSYIMEPL [TCTE3_Y87_R88I] | 0.436 |
| PADRAYSWYQH [NDST1_Y711] | 1.58 |
| RELGKYGLQAF [ALDH2_Y497_E496K_YF] | 0.786 |
| SLGKGYFDGGC [MC4R_Y35_S36Y_YF] | 0.842 |
| RLLVVYPGTQR [HBB_Y36_W38G] | 0.739 |
| GPIFRYDLGGA [CYP11B1_Y81] | 0.497 |
| TCFDKYTGNTY [FN1_Y101] | 0.717 |
| KFDLMYAKRAF [TUBA1A_Y399] | 0.544 |

| Sequence | phosphorylation enrichment |
| --- | --- |
| IMITGYLLLFR [INSR_Y87_D86G] | 1.13 |
| SVVVPYEPPVV [TP53_Y220_E224V] | 0.659 |
| GVTLLYYGRYN [ADGRD1_Y85] | 0.852 |
| EEVGIYRVSGV [BCR_Y1089] | 14.1 |
| PVQAAYQKLVA [HBB_Y131_V134L] | 0.518 |
| VKGGAYYPVTV [MCCC2_Y145] | 0.609 |
| ANQDDHISFRH [IMP4_Y226_Y226H] | 0.912 |
| GDNSIYVTKII [DLG1_Y349] | 0.518 |
| GFPVHYTGVSN [DNMT3B_Y815_D817G] | 0.608 |
| IFLENYNAGTY [CFI_Y421_H418L] | 0.665 |
| GAPATYKGDAR [CACNA1A_Y1013_E1014K] | 0.568 |
| GYSRHYEDGYP [CTNND1_Y217] | 0.67 |
| YPLAEYTEVKT [ALDH1A3_Y497_A493P] | 0.607 |
| TTHRGYDSDNP [MMUT_Y146_A141T] | 0.642 |
| PLQKTYNFNVL [SLC4A1_Y553_YF] | 0.627 |
| VQSASYLNACL [MCM3AP_Y864] | 0.645 |

Source: the supplement of paper PMC10065799, “High-throughput profiling of sequence recognition by tyrosine kinases and SH2 domains using bacterial peptide display” (eLife, 2023)
